Reference: US8092794B2, “Pharmaceutical compositions comprising SODs and prolamine based peptide fragments” (Isocell Pharma S.A., priority 2006, dated 2012)

Experiments:
[1] = test system: foot oedema induced by carrageenan or adriamycin; details: cited from earlier work; for anti-inflammatory activity in rats: studies in rats
HT-29 cell line = experiment: HT-29 cell proliferation (cell count, GUAVA PC Viacount); format: cell-based, human; details: for toxic effect on HT-29 proliferation curves: 10 units, sampled over 72 hours; for dose that does not modify growth of the HT-29 cell line: dose range 0 to 50 NBT units
Experimental: The human colon carcinoma cell line HT-29 (ATCC HTB-38) is grown in 10% foetal bovine serum (FBS) in Dulbecco's modified Eagle's medium (D-MEM) supplemented with GlutaMAX-1, 4.5 g/L D-Glucose, sodium pyruvate and 100 unit/ml of penicillin/streptomycin. For each experiment (n=4) approximately 2×10^4 cells/well were incubated for 24 hours at 37° C. in 5% CO2 atmosphere. Prior to any experiment, existing culture medium was replaced by a fresh one.
After the incubation period, cell monolayers were detached with a PBS solution containing 0.05% trypsin and 0.5 mM EDTA, washed in calcium-free and magnesium-free phosphate-buffered saline solution (PBS) and collected by centrifugation. Cells were then counted in a hemocytometer by using the GUAVA PC Viacount Flex Kit and reported in cells/ml to estimate cellular proliferation.
In the current experiment, cultures are periodically sampled over a 72 hour period to assess the proliferation rate and the viability of HT-29 cells after exposure or not to various components, (a) 10 μM of gliadin peptide 982 (Triticum vulgare, QQPYPQPF, SEQ. ID No. 01) representing at least 100 times less than the concentration previously related to induce a significant enterocyte agglutination (De Vicenzi. M et al. 1997 Toxicology, vol 120 p 207) or enterocyte apoptosis (Giovannini et al. 2000, Toxicology, vol 145 p 63).
For recombinant protein dose-response experiments, HT-29 cells were incubated with increasing concentrations of recombinant SOD or Gli-SOD (0 to 50 NBT units) for a further 48 hours.
Cultures were periodically sampled over 72 hours to assess the proliferation rate and the viability of HT-29 cells after exposure or not to various components, (a) 10 units of recombinant SOD or (b) 10 units of recombinant SOD associated with 10 μM of peptide 982 or finally (c) 10 units of recombinant Gli-SOD (SOD physically linked to gliadin peptide 982).

[2] = NBT photoreduction on NATIVE-PAGE electrophoresis (anti-radical / antioxidant activity of SODs); format: biochemical; details: currently used bacterial host strains, rare codons
Experimental: The expression products of the first variants for each kind of constructions were used to validate the anti-radical activity of the various biosynthetic SODs obtained. These activities were verified by the reduction of NBT on native PAGE.
The melon pseudo cytosolic Cu—ZnSOD and the human or tomato cytosolic Cu—ZnSOD as well as their equivalents bearing the two different gliadin peptides are analysed for their antiradical activities. These activities are verified according to the NBT photoreduction on NATIVE-PAGE electrophoresis (Beauchamps and Fridovitch, 1971).
The Cucumis melo recombinant SOD as well as its equivalents bearing the gliadin peptide (Gli-SOD) were produced and purified according to a multiple step denaturation/renaturation protocol. […] The potentiality of both recombinant proteins (Cucumis melo SOD and Gli-SOD) to reduce NBT on NATIVE-PAGE electrophoresis (NBT photoreduction, Beauchamps and Fridovitch, 1971) was evaluated and compared with that of the natural Cucumis melo extract.
The migration profile and the NBT reduction obtained on Native-PAGE electrophoresis corroborate the correct and efficient refolding of both recombinant proteins, SOD or Gli-SOD (4 000-10 000 UNBT/mg protein) which is a mandatory event to display their antioxidant activity.

HT-29 cells [3] = experiment: Basal apoptosis of HT-29 cells, annexin V test (GUAVA Nexin Kit); format: cell-based, human; details: 10 units, 24 hours; for rate of basal apoptosis (annexin V positive cells): basal 20% (20.5)
Experimental: (§1) Apoptosis was analyzed in HT-29 cell line using the GUAVA Nexin Kit which discriminates between apoptotic and non apoptotic cells. This method utilizes annexin V Phycoerythrin to detect phopshatidylserine (PS) (Martin et al. 1995, J Exp Med vol 182 p 1545) on the external membrane of apoptotic cells.
(§2) After 24 hours, cell monolayers are detached with a PBS solution containing trypsin 0.05% and EDTA 0.5 mM, washed in calcium-free and magnesium-free phosphate-buffered saline solution (PBS) and apoptotic cell staining is performed and analysed with a GUAVA PCA system.
(§3) For the basal apoptotic inhibition (part A), the culture medium was replaced with fresh culture medium containing or absent 10 units of both recombinant SODs (NBT units). For the Orexin induced-apoptotic inhibition (part B), the culture medium was replaced with fresh culture medium containing 1 μM of orexin and/or 50 units of each recombinant SOD (NBT units). Results are expressed as the percentage of apoptotic annexin V-PE positive cells and are the means of four points.

HT-29 cells [4] = experiment: Orexin-induced apoptosis of HT-29 cells, annexin V test; format: cell-based, human; details: 50 units + 1 μM orexin; for rate of orexin-induced apoptosis: orexin alone 40%
Experimental: as §1, §2, §3
In a second experiment, the potent anti-apoptotic effect of the recombinant SOD or Gli-SOD was confirmed when apoptosis was induced via orexin supplementation to the HT-29 cells culture medium. In this case, the rate of HT-29 cell going into apoptosis may be enhanced from 20% evaluated for the basal level to 40% by addition of 1 μM of Orexin in the culture medium.

HT-29 cells [5] = experiment: Xanthine/xanthine oxidase (X/XO)-induced apoptosis of HT-29 cells, annexin V test; format: cell-based, human; details: 50 units, 10mU of X/XO complex
Experimental: as §1, §2
In this third experiment, tests of the potent anti-apoptotic effect of the recombinant SOD or Gli-SOD according to the invention on the possible Fas/FasL pathway via Xanthine/xanthine oxidase induction in the HT-29 cells culture medium were carried out.
In this case, the rate of HT-29 cell going into apoptosis may be enhanced from 20% evaluated for the basal level to 30% by addition of 10mU of X/XO complex in the culture medium. Addition of 50 units of recombinant melon SOD or again 50 units of recombinant Gli-SOD to the culture medium, prevented the X/XO-induced apoptotic pathway in the HT-29 cells respectively by 71% and 86%.

HT-29 cells [6] = experiment: Binding of SOD or Gli-SOD to HT-29 cells, FITC immunohistochemistry with EP-1669; format: cell-based, human; details: 50 units, 24 hours
Experimental: For each experiment (n=4), approximately 15×10^3 cells/lamella layer were incubated for 24 hours at 37° C. in 5% CO2 atmosphere. Prior to any experiment, existing culture medium was replaced by a fresh one.
The cell monolayer was then incubated in a fresh medium with or without 50 units of SOD or Gli-SOD for a further 24 hours, washed in calcium-free and magnesium-free phosphate-buffered saline solution (PBS) and then analyzed by immunohistochemistry. Binding of Gli-SOD to HT-29 cells was analyzed using the EP-1669 as a first antibody (rabbit IgG anti-SOD, dilution 1/2000°) for 30 minutes followed by a second FITC-coupled antibody for further 30 minutes (goat anti-rabbit antibody, dilution 1/100). This method was chosen rather than flow cytometry because the latter technique requires that cells be harvested by trypsin treatment and collected prior to analysis, and such treatment would likely have negatively impacted the interaction between the Gli-SOD molecules and cell surfaces.

bovine CuZn-SODs: bovine CuZn superoxide dismutase
anti-inflammatory activity after oral administration ([1]; administered orally, using liposomes or ceramides, rat leg oedema induced by carrageenan): reduction of rat leg oedema induced by carrageenan
anti-inflammatory activity in rats [1]: such an anti-inflammatory activity

QQPYPQPQPF (Triticum vulgare) [peptide 982, 10 amino acids peptide of A-gliadin, Triticum vulgare]
effect on HT-29 cell line proliferation at 24 hours (HT-29 cell line; 10 μM peptide, 24 hours of culture): a major effect on HT-29 cell line proliferation, but exclusively at 24 hours of culture
effect on HT-29 proliferation after 48 hours (HT-29 cell line; 10 μM peptide, 48 hours): the proliferation returns to its basal level

Human CuZn-SOD: recombinant human cytosolic CuZn-SOD expressed in bacteria
activity of biosynthetic SOD expressed in the applicant's bacterial system [2]: functional

homologous rat CuZn-SOD: rat CuZn superoxide dismutase
anti-inflammatory activity in rats [1]: no anti-inflammatory activity

B1: human Mn-SOD: human manganese superoxide dismutase (protein, UniProt P04179 25-222, looked up)
Superoxide dismutase [Mn], …: KHSLPDLPYDYGALEPHINAQIMQLHHSKHHAAYVNNLNVTEEKYQEALAKGDVTAQIALQPALKFNGGGHINHSIFWTNLSPNGGGEPKGELLEAIKRDFGSFDKFKEKLTAASVGVQGSGWGWLGFNKERGHLQIAACPNQDPLQGTTGLIPLLGIDVWEHAYYLQYKNVRPDYLKAIWNVINWENVTERYMACKK
anti-inflammatory activity in rats [1]: no anti-inflammatory activity

B2: recombinant Gli-SOD: recombinant melon CuZn SOD fused at its N-terminal part to A-gliadin peptide QQPYPQPQPF (peptide 982) (protein)
chain: QQPYPQPQPFMVKAVAVLKGTSDVEGVVTLTQEDDGPTSVNVRITGLTPGPHGFHLHEFGDTTNGCISTGAHFNPNKLTHGAPEDEIRHAGDLGNIIANADGVAEATIVDNQIPLSGPNSVVGRAFVVHELADDLGKGGHELSLTTGNAGGRLACGVVGLTPV
modifications: Cucumis melo
"peptide effect" on HT-29 proliferation at 24 hours (HT-29 cell line; 10 units SOD coupled to or associated with 10 μM peptide 982): no “peptide effect” at 24 hours of culture
toxic effect on HT-29 proliferation curves (HT-29 cell line): neither SOD nor Gli-SOD exert any toxic effect
dose that does not modify growth of the HT-29 cell line (HT-29 cell line; 48 hours): 5 units
inhibition of basal apoptosis (HT-29 cells [3]): 18.1%
rate of basal apoptosis (annexin V positive cells) (HT-29 cells [3]): 16.8%
inhibition of orexin-induced apoptosis (HT-29 cells [4]): 54.7%
rate of orexin-induced apoptosis (HT-29 cells [4]): 28.7%
prevention of X/XO-induced apoptotic pathway (HT-29 cells [5]): 86%
presence of SOD in the vicinity of the cells (FITC fluorescence) (HT-29 cells [6]): apparently to a greater extent

B3: recombinant SOD: recombinant Cucumis melo CuZn superoxide dismutase (pseudo-cytosolic form) expressed in E. coli, His-tag cleaved, refolded (protein)
chain: MVKAVAVLKGTSDVEGVVTLTQEDDGPTSVNVRITGLTPGPHGFHLHEFGDTTNGCISTGAHFNPNKLTHGAPEDEIRHAGDLGNIIANADGVAEATIVDNQIPLSGPNSVVGRAFVVHELADDLGKGGHELSLTTGNAGGRLACGVVGLTPV
modifications: Cucumis melo
toxic effect on HT-29 proliferation curves (HT-29 cell line): neither SOD nor Gli-SOD exert any toxic effect
dose that does not modify growth of the HT-29 cell line (HT-29 cell line; 48 hours): 10 units
inhibition of basal apoptosis (HT-29 cells [3]): 12.2%
rate of basal apoptosis (annexin V positive cells) (HT-29 cells [3]): 18%
inhibition of orexin-induced apoptosis (HT-29 cells [4]): 26%
rate of orexin-induced apoptosis (HT-29 cells [4]): 34.4%
prevention of X/XO-induced apoptotic pathway (HT-29 cells [5]): 71%
presence of SOD in the vicinity of the cells (FITC fluorescence) (HT-29 cells [6]): clearly visible

B4: yeast CuZn-SODs: yeast CuZn superoxide dismutase (protein, UniProt P00445 2-154, looked up)
Superoxide dismutase [Cu-Zn]: VQAVAVLKGDAGVSGVVKFEQASESEPTTVSYEIAGNSPNAERGFHIHEFGDATNGCVSAGPHFNPFKKTHGAPTDEVRHVGDMGNVKTDENGVAKGSFKDSLIKLIGPTSVVGRSVVIHAGQDDLGKGDTEESLKTGNAGPRPACGVIGLTN
anti-inflammatory activity in rats [1]: pro-inflammatory activity

B5: biosynthetic tomato cytosolic SODs: recombinant Lycopersicon esculentum cytosolic CuZn-SOD expressed in bacteria (protein, listed as Lycopersicon esculentum)
chain: MVKAVAVLNSSEGVSGTILFTQDGDAPTTVNGNISGLKPGLHGFHVHALGDTTNGCMSTGPHYNPAGKEHGAPEDEVRHAGDLGNITVGEDGTASFTITDKQIPLTGPQSIIGRAVVVHADPDDLGKGGHELSKSTGNAGGRIACGIIGLQG
activity of biosynthetic SOD expressed in the applicant's bacterial system [2]: a lot less active
